Laboratory results: paper PMC9519043

Assays:
[1] = test system: HCoV 229E virus particle (Human coronavirus 229E (ATCC VR-740)); experiment: microfluidic affinity capture, RT-qPCR; conditions: 5' amino C12 linker and TEG spacer 9, 3' inverted dT, SPR (BIAcore T200, […], pH not stated
[2] = test system: HCoV OC43 virus particle (Betacoronavirus 1 HCoV OC43 (ATCC VR-1558)); experiment: microfluidic affinity capture, RT-qPCR; conditions: 5' amino C12 linker and TEG spacer 9, 3' inverted dT, SPR (BIAcore T200, […], pH not stated

CAGCACCGACCTTGTGCTTTGGGAGTGCTGGTCCAAGGGCGTTAATGGACA [51-nt SARS-CoV-2 aptamer, chip form]
binding signal [1]: 0.7 % recovery | binding signal [2]: 3.5 % recovery
